# Measured values published in publication PMC6515479, “An Investigation on Glucuronidation Metabolite Identification, Isozyme Contribution, and Species Differences of GL-V9 In Vitro and In Vivo” (Molecules, 2019).
# Key:
# Format in all cases: in vitro ADME, human
# [1] = substrate: COc1c(OCCCCN2CCCC2)cc(O)c2c(=O)cc(-c3ccccc3)oc12; assay: Recombinant enzyme kinetics of GL-V9 glucuronidation, rUGT1A7; conditions: other: formation of 5-O-glucuronide GL-V9, rUGT1A7, protein 0.05 mg/mL, 1 h at 37 °C, mean ± SD, n = 3, pH 7.4
# Protocol: [The source words this procedure for another target and says it was used here with some conditions changed.] (§1) The composition of the incubation system (200 μL) contained liver microsomes of different species (0.1 mg protein/mL), 5 mM saccharolactone (D-saccharic acid 1,4-lactone monohydrate), 10 mM MgCl2, alamethicin (50 μg/mg protein), Tris-HCl buffer (50 mM, pH 7.4) and GL-V9 (1 μM). After 5 min of preincubation at 37 °C, UDPGA (5 mM) was added to initiate the phase II reaction. Control incubation samples were performed without UDPGA or without substrates (GL-V9). The reaction was terminated by addition of ice-cold methanol (three volumes) after incubation for 1 h at 37 °C. Samples were vortexed, centrifuged at 21,500× g for 10 min and then stored at 4 °C until HPLC-UV-TripleTOF analysis. To confirm that these metabolites are conjugates resulting from glucuronidation reaction, enzymatic hydrolysis of samples was processed. β-glucuronidase (100 KU, Sigma) was added and the hydrolysis was performed overnight at 37 °C. The control samples were carried out without β-glucuronidase under the same condition.
# (§2) Rates of the glucuronidation of GL-V9 were described as amounts of glucuronides formed per minute per milligram (pmol/min/mg). The calculation model of kinetic parameters was selected by the profile of Eadie-Hofstee plots. It often includes three possibilities: (1) the Eadie-Hofstee plot was linear, the formation rates of glucuronides (V) at different substrate concentrations (C) were fit to the standard Michaelis-Menten calculation of GraphPad Prism (version 6.02, GraphPad Software Inc., Guildford, Surrey, UK); (2) the Eadie-Hofstee plot was atypical kinetic-autoactivation, the rates and concentration were fit with the allosteric sigmoidal function of GraphPad Prism; (3) the Eadie-Hofstee plot was atypical kinetic-biphasic, the rates and concentration were fit with the […] of GraphPad Prism.
# [2] = substrate: COc1c(OCCCCN2CCCC2)cc(O)c2c(=O)cc(-c3ccccc3)oc12; assay: Recombinant enzyme kinetics of GL-V9 glucuronidation, rUGT1A8; conditions: other: formation of 5-O-glucuronide GL-V9, rUGT1A8, protein 0.06 mg/mL, 1 h at 37 °C, mean ± SD, n = 3, pH 7.4
# Protocol: [The source words this procedure for another target and says it was used here with some conditions changed.] as §1, §2
# [3] = substrate: COc1c(OCCCCN2CCCC2)cc(O)c2c(=O)cc(-c3ccccc3)oc12; assay: Recombinant enzyme kinetics of GL-V9 glucuronidation, rUGT1A9; conditions: other: formation of 5-O-glucuronide GL-V9, rUGT1A9, protein 0.06 mg/mL, 1 h at 37 °C, mean ± SD, n = 3, pH 7.4
protein,measurement,setting,value
"rUGT1A7 (Homo sapiens) (protein, purchased Corning (Woburn, MA, USA)) GKLLVVPMDGSHWFTMQSVVEKLILRGHEVVVVMPEVSWQLGRSLNCTVKTYSTSYTLEDQDREFMVFADARWTAPLRSAFSLLTSSSNGIFDLFFSNCRSLFNDRKLVEYLKESCFDAVFLDPFDACGLIVAKYFSLPSVVFARGIFCHYLEEGAQCPAPLSYVPRLLLGFSDAMTFKERVWNHIMHLEEHLFCPYFFKNVLEIASEILQTPVTAYDLYSHTSIWLLRTDFVLEYPKPVMPNMIFIGGINCHQGKPVPMEFEAYINASGEHGIVVFSLGSMVSEIPEKKAMAIADALGKIPQTVLWRYTGTRPSNLANNTILVKWLPQNDLLGHPMTRAFITHAGSHGVYESICNGVPMVMMPLFGDQMDNAKRMETKGAGVTLNVLEMTSEDLENALKAVINDKSYKENIMRLSSLHKDRPVEPLDLAVFWVEFVMRHKGAPHLRPAAHDLTWYQYHSLDVIGFLLAVVLTVAFITFKCCAYGYRKCLGKKGRVKKAHKSKTH",Km,[1],3.25 ± 0.29 µM
same,Vmax,[1],3.11e-05 µmol/min/mg
same,Vmax/Km,[1],9.58 µL/min/mg
"rUGT1A8 (Homo sapiens) (protein, purchased Corning (Woburn, MA, USA)) GKLLVVPMDGSHWFTMQSVVEKLILRGHEVVVVMPEVSWQLGKSLNCTVKTYSTSYTLEDLDREFMDFADAQWKAQVRSLFSLFLSSSNGFFNLFFSHCRSLFNDRKLVEYLKESSFDAVFLDPFDACGLIVAKYFSLPSVVFARGIACHYLEEGAQCPAPLSYVPRILLGFSDAMTFKERVRNHIMHLEEHLFCQYFSKNALEIASEILQTPVTAYDLYSHTSIWLLRTDFVLDYPKPVMPNMIFIGGINCHQGKPLPMEFEAYINASGEHGIVVFSLGSMVSEIPEKKAMAIADALGKIPQTVLWRYTGTRPSNLANNTILVKWLPQNDLLGHPMTRAFITHAGSHGVYESICNGVPMVMMPLFGDQMDNAKRMETKGAGVTLNVLEMTSEDLENALKAVINDKSYKENIMRLSSLHKDRPVEPLDLAVFWVEFVMRHKGAPHLRPAAHDLTWYQYHSLDVIGFLLAVVLTVAFITFKCCAYGYRKCLGKKGRVKKAHKSKTH",Km,[2],13.92 ± 1.05 µM
same,Vmax,[2],5.06e-05 µmol/min/mg
same,Vmax/Km,[2],3.64 µL/min/mg
"rUGT1A9 (Homo sapiens) (protein, purchased Corning (Woburn, MA, USA)) GKLLVVPMDGSHWFTMRSVVEKLILRGHEVVVVMPEVSWQLGRSLNCTVKTYSTSYTLEDLDREFKAFAHAQWKAQVRSIYSLLMGSYNDIFDLFFSNCRSLFKDKKLVEYLKESSFDAVFLDPFDNCGLIVAKYFSLPSVVFARGILCHYLEEGAQCPAPLSYVPRILLGFSDAMTFKERVRNHIMHLEEHLLCHRFFKNALEIASEILQTPVTEYDLYSHTSIWLLRTDFVLDYPKPVMPNMIFIGGINCHQGKPLPMEFEAYINASGEHGIVVFSLGSMVSEIPEKKAMAIADALGKIPQTVLWRYTGTRPSNLANNTILVKWLPQNDLLGHPMTRAFITHAGSHGVYESICNGVPMVMMPLFGDQMDNAKRMETKGAGVTLNVLEMTSEDLENALKAVINDKSYKENIMRLSSLHKDRPVEPLDLAVFWVEFVMRHKGAPHLRPAAHDLTWYQYHSLDVIGFLLAVVLTVAFITFKCCAYGYRKCLGKKGRVKKAHKSKTH",Km,[3],4.72 ± 0.28 µM
same,Vmax,[3],0.000148 µmol/min/mg
